The results in this text go back to paper PMC4666394, “Human HLTF mediates postreplication repair by its HIRAN domain-dependent replication fork remodelling”.

Substitutions are numbered along the chain they refer to.

Series [1] concerns the target T1, HLTF HIRAN domain NN90,91AA (human, UniProt Q14527 56-168, N90A;N91A).
T1 sequence: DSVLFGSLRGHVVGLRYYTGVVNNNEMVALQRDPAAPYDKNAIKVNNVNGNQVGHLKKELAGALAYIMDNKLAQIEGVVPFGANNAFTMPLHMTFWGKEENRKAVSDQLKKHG
Briefly: EMSA; Competition: 20 mM HEPES pH 7.5, 150 mM NaCl, 1 mM DTT, 0.1 ug/mL BSA, 0.2% NP40, 10% glycerol, room temperature 15 min; 6% native PAGE 0.5x Tris-borate without EDTA at 4 C; direct gel shift as in cited earlier work. As to conditions: protein: recombinant, tags: FLAG or GST-FLAG, label: 5' 32P.

Series [2] addresses T2, HLTF HIRAN domain WT (human, UniProt Q14527 56-168).
T2 sequence: T1 sequence with A35N, A36N
The series is described as above. The note with it: protein: recombinant, tags: FLAG (GST-FLAG cleaved by PreScission) or GST-FLAG, label: 5' 32P.

In series [3] the target is T2, HLTF HIRAN domain WT. Briefly: EMSA; high affinity; Competition: 20 mM HEPES pH 7.5, 150 mM NaCl, 1 mM DTT, 0.1 ug/mL BSA, 0.2% NP40, 10% glycerol, room temperature 15 min; 6% native PAGE 0.5x Tris-borate without EDTA at 4 C; direct gel shift as in cited earlier work. The note with it: protein: recombinant; tags: FLAG (GST-FLAG cleaved by PreScission) or GST-FLAG; label: 5' 32P; fork 1:4 2:3 3:4; two 30 bp daughter arms, 45 bp parental duplex, no ss region.

The next series addresses T3, GST-FLAG-HIRAN (WT) (human, UniProt Q14527 56-168).
T3 sequence: T1 sequence with A35N, A36N
Briefly: competition; 0-1 uM competitor against Cy5 fork; competes better than ssDNA; Competition: 20 mM HEPES pH 7.5, 150 mM NaCl, 1 mM DTT, 0.1 ug/mL BSA, 0.2% NP40, 10% glycerol, room temperature 15 min; 6% native PAGE 0.5x Tris-borate without EDTA at 4 C; direct gel shift as in cited earlier work. As to conditions: protein: recombinant; tags: GST-FLAG; label: 5' fluorescein on strand 4 (O3063); fork 1:4 2:3 3:4; two 30 bp daughter arms, 45 bp parental duplex, no ss region. For orientation: In EMSA bound probe runs differently from free probe, usually more slowly.

Where [4] appears, read: 30 bp duplex, 5' overhang 45 nt on strand 2.

B1: ds75-mer O1058/O1118 (dsDNA)
DNA 1: AGCTACCATGCCTGCCTCAAGAATTCGTAATATGCCTACACTGGAGTACCGGAGCATCGTCGTGACTGGGAAAAC
DNA 2: GTTTTCCCAGTCACGACGATGCTCCGGTACTCCAGTGTAGGCATATTACGAATTCTTGAGGCAGGCATGGTAGCT
With B1, the binding result (in series [1] (blunt); with HLTF HIRAN domain WT [2] (blunt)) was “no binding” each time.

B2: replication fork O1054/O1056/O1058/O1118 (structured_DNA)
DNA 1: AGCTACCATGCCTGCCTCAAGAATTCGTAA
DNA 2: TTACGAATTCTTGAGGCAGGCATGGTAGCT
DNA 3: B1 DNA 1
DNA 4: B1 DNA 2
In the case of B2, the binding result is “no binding” in series [1] (fork 1:4 2:3 3:4, two 30 bp daughter arms, 45 bp parental duplex, no ss region) and “binds” in the series with HLTF HIRAN domain WT [3].

B3: partial duplex O1054/O1118 (mixed)
DNA 1: B2 DNA 1
DNA 2: B1 DNA 2
B3: the binding result in series [1] (setting [4]) is given as “no binding”; with HLTF HIRAN domain WT [2] (setting [4]) it was “binds”.

B4: replication fork O1054/O1056/O1058/O3063 (structured_DNA)
DNA 1: B2 DNA 1
DNA 2: B2 DNA 2
DNA 3: B1 DNA 1
DNA 4: B1 DNA 2
B4: the binding result in the series with GST-FLAG-HIRAN (WT) is “binds”.
